Test results taken from PMC8956953 (The Journal of Biological Chemistry, 2022).

B1: RPS6KA6, spotted on the ProtoArray (enzyme, human, UniProt Q9UK32 1-745, looked up)
chain: MLPFAPQDEPWDREMEVFSGGGASSGEVNGLKMVDEPMEEGEADSCHDEGVVKEIPITHHVKEGYEKADPAQFELLKVLGQGSFGKVFLVRKKTGPDAGQLYAMKVLKKASLKVRDRVRTKMERDILVEVNHPFIVKLHYAFQTEGKLYLILDFLRGGDVFTRLSKEVLFTEEDVKFYLAELALALDHLHQLGIVYRDLKPENILLDEIGHIKLTDFGLSKESVDQEKKAYSFCGTVEYMAPEVVNRRGHSQSADWWSYGVLMFEMLTGTLPFQGKDRNETMNMILKAKLGMPQFLSAEAQSLLRMLFKRNPANRLGSEGVEEIKRHLFFANIDWDKLYKREVQPPFKPASGKPDDTFCFDPEFTAKTPKDSPGLPASANAHQLFKGFSFVATSIAEEYKITPITSANVLPIVQINGNAAQFGEVYELKEDIGVGSYSVCKRCIHATTNMEFAVKIIDKSKRDPSEEIEILMRYGQHPNIITLKDVFDDGRYVYLVTDLMKGGELLDRILKQKCFSEREASDILYVISKTVDYLHCQGVVHRDLKPSNILYMDESASADSIRICDFGFAKQLRGENGLLLTPCYTANFVAPEVLMQQGYDAACDIWSLGVLFYTMLAGYTPFANGPNDTPEEILLRIGNGKFSLSGGNWDNISDGAKDLLSHMLHMDPHQRYTAEQILKHSWITHRDQLPNDQPKRNDVSHVVKGAMVATYSALTHKTFQPVLEPVAASSLAQRRSMKKRTSTGL
notes: human RPS6KA6 kinase; not shown: GST, N-terminal, kept
B2: S100 calcium-binding protein B, spotted on the ProtoArray (natural protein, human, UniProt P04271 1-92, looked up)
chain: MSELEKAMVALIDVFHQYSGREGDKHKLKKSELKELINNELSHFLEEIKEQEVVDKVMETLDNDGDGECDFQEFMAFVAMVTTACHEFFEHE
notes: also called S100β; not shown: GST, N-terminal, kept
B3: YES1, spotted on the ProtoArray (enzyme)
chain: not shown
notes: human YES1 kinase; not shown: GST, N-terminal, kept

The binders below were run against T1, recombinant human full-length tau protein (htau40) (human, UniProt P10636-8 1-441) (assay: peptide or protein array; ProtoArray Human Protein Microarrays v5.1, ~9000 N-terminal GST-tagged human proteins spotted on nitrocellulose-coated slides; htau40 at 5 and 50 ng/μl in probe buffer (1x PBS, 0.1% Tween-20, 1x synthetic block), 90 min at 4 °C; detected with anti-tau K9JA and Alexa Fluor 647 secondary antibody). Settings: both partners purified.
T1 construct: human microtubule-associated protein tau, longest CNS splicing variant 2N4R (htau40); also called recombinant htau40; 2N4R; source: E. coli-derived recombinant protein

Binding result, binds:
B1
B2
B3
